Measured values reported in paper PMC6237750.

Assays:
[1] = molecular target: T1, DNA polymerase beta I260Q (NMR, crystal) (UniProt P06746 1-335, I260Q); experiment: NMR; binary, 10 mM MgCl2; NMR: 50 mM HEPES, 100 mM KCl, 2 mM DTT, 10 mM MgCl2, 10% D2O, pH 7.4; crystals: 18-20% PEG 3350, 50 mM HEPES pH 7.5, 175-250 mM Na acetate, 2 mM TCEP, 1% tert-b
[2] = molecular target: T1, DNA polymerase beta I260Q (NMR, crystal); experiment: X-ray crystallography; binary; NaI soak; NMR: 50 mM HEPES, 100 mM KCl, 2 mM DTT, 10 mM MgCl2, 10% D2O, pH 7.4; crystals: 18-20% PEG 3350, 50 mM HEPES pH 7.5, 175-250 mM Na acetate, 2 mM TCEP, 1% tert-b

B1: NMR substrate template T (20) (dsDNA)
DNA 1: CGACCGACTGCGCATCAGCC
DNA 2: GGCTGATGCGC
DNA 3: GTCGGTCG
Does B1 bind [1]?
Result: binds

B2: X-ray substrate template A (16) (dsDNA)
DNA 1: CCGACAGCGCATCAGC
DNA 2: GCTGATGCGC
DNA 3: GTCGG
Does B2 bind [2]?
Result: binds
